Starred links: 1 amine or outer side, 2 acyl side, 3 side chain; linkers in the order of their positions; H or OH if unused. Non-standard residues stand in square brackets, D forms with d. No end group written: not given here. *: point of attachment. εLys = N[C@@H](CCCCN[*:1])C(=O)[*:2]; Palmitoyl = CCCCCCCCCCCCCCCC(=O)*; Aib = CC(C)(N)C(=O)O
Biological target: Glucagon-like peptide-1 receptor (GLP1R)
Assay: cell-based or functional assay

Q: H[Aib]EGTFTSDVSSYLEEEAAKEFIAWLVRGGPSSGAPPPSK (not fully specified (residue 40); ends and bridges not checked) [HS-20004] was tested. Which “EC50 (nM), cAMP-response-element luciferase reporter in HEK293 cells with GLP1R” value did it give?
A: 0.000373 nM

Q: What about the “Maximum reaction rate (%)” value of the same binder?
A: 90.8%

Q: Which “EC50 (nM), cAMP-response-element luciferase reporter in HEK293 cells with GLP1R” value does the source give for HAEGTFTSDVSSYLEGQAAEFIVWLVKGRGKKGGPPPS[εLys](Palmitoyl) (not fully specified) [HS-20005] here?
A: 0.000236 nM

Q: What about the “Maximum reaction rate (%)” value of the same binder?
A: 89.1%

Q: Which results are given for HAEGTFTSDVSSYLEEQAAEFIVWLVKGRGKKGGPPPS[εLys](Palmitoyl) (not fully specified) [HS-20007]?
A: EC50 (nM), cAMP-response-element luciferase reporter in HEK293 cells with GLP1R: 0.000549 nM; Maximum reaction rate (%): 87%

Source: patent US20120129768A1 (JIANGSU HANSOH PHARMACEUTICAL GROUP, published 2012)
